In patent US20100178253A1 (published 2010):
Bridges are numbered along the chain shown (N, C = ends).

How the values were obtained:
human serum albumin = target: T1, human serum albumin (human, UniProt P02768 25-609); assay: fluorescence polarisation, change of polarisation value with human serum albumin
T1 construct: also called HSA; plasma protein (PPB)

[1] = target: T2, human c-Met/Fc chimera (R&D Systems) (human, UniProt P08581 25-932); assay: fluorescence polarisation (anisotropy), 5 nM dye-labelled peptide, c-Met/Fc 0-250 nM, one-site fit
T2 construct: Bought from R&D Systems; Printed once as 'c-Met/Fe chimera' [sic]; also called human c-Met/Fe chimera; not shown: Fc part (and any linker or tag) of the bought chimera
T2 sequence (P08581 25-932 limits assumed, change not shown): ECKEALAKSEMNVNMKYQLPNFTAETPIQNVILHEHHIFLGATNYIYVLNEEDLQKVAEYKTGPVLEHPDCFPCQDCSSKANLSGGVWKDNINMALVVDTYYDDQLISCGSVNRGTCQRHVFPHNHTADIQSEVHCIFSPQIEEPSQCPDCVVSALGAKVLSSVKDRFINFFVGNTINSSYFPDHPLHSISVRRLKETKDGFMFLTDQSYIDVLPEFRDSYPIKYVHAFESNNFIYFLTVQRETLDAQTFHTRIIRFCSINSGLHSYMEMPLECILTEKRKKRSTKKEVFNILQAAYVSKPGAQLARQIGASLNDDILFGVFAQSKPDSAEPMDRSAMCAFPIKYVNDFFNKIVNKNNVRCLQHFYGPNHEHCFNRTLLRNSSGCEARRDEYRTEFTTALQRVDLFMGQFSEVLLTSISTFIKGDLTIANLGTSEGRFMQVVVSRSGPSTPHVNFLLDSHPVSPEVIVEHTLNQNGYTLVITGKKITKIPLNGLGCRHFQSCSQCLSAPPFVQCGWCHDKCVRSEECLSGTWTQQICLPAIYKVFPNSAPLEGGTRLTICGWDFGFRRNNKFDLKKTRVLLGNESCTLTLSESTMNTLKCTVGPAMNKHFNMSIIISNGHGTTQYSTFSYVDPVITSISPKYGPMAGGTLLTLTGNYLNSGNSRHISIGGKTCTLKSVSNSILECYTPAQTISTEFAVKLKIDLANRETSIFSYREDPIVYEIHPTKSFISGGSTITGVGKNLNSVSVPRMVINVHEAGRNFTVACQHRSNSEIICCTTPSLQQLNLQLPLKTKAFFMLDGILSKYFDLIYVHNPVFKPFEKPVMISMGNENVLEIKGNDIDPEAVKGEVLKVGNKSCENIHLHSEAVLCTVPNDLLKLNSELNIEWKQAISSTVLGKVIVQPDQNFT
Procedure: The fluorescence anisotropy measurements were performed in 384-well microplates in a volume of 10 μL in binding buffer (PBS, 0.01% Tween-20, pH 7.5) using a Tecan Safire fluorescence polarisation plate reader (Tecan, US) at Ex 635/Em 678 nm. The to concentration of dye-labelled peptide was held constant (5 nM) and the concentration of the human c-Met/Fe chimera (R&D Systems) was varied from 0-250 nM. Binding mixtures were equilibrated in the microplate for 10 min at 30° C. The observed change in anisotropy was fit to the equation

T1 sequence (P02768 25-609 limits assumed): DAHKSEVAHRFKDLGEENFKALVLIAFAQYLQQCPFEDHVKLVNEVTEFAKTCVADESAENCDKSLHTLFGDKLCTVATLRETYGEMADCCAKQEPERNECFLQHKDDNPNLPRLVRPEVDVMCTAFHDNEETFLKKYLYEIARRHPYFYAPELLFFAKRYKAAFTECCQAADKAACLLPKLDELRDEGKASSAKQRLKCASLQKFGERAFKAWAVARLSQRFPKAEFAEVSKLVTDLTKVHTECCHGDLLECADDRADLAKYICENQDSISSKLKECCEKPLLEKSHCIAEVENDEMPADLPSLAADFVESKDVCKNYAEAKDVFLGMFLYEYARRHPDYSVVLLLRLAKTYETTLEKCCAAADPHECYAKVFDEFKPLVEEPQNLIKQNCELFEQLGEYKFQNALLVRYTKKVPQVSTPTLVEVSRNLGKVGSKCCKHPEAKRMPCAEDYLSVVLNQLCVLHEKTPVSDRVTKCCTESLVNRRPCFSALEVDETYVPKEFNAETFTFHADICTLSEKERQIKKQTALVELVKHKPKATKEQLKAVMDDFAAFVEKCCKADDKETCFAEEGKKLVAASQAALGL

B1: Compound 3 ([Peptide 1]-DY-633 conjugate) (peptide)
peptide: Ac-AGSCYCSGPPRFECWCYETEGTGGGK-NH2
modifications: disulfide 6-14, 4-16; not fully specified (residue 26); also: DY-633 dye attached, site not given here
Human serum albumin
  PPB (% change in polarisation value): 27%
[1]
  Kd: 0.5 nM

B2: Compound 5 ([Peptide 1]-DY-651 conjugate) (peptide)
peptide: Ac-AGSCYCSGPPRFECWCYETEGTGGGK-NH2
modifications: disulfide 6-14, 4-16; not fully specified (residue 26); also: DY-651 dye attached, site not given here
Human serum albumin
  PPB (% change in polarisation value): 49%
[1]
  Kd: 2.2 nM

B3: Compound 1 ([Peptide 1]-DY-630 conjugate) (peptide)
peptide: Ac-AGSCYCSGPPRFECWCYETEGTGGGK-NH2
modifications: disulfide 6-14, 4-16; not fully specified (residue 26); also: DY-630 dye attached, site not given here
notes: Printed in three-letter code, turned into one-letter code here
Human serum albumin
  PPB (% change in polarisation value): 36%
[1]
  Kd: 2.2 nM

B4: Compound 2 ([Peptide 1]-DY-631 conjugate) (peptide)
peptide: Ac-AGSCYCSGPPRFECWCYETEGTGGGK-NH2
modifications: disulfide 6-14, 4-16; not fully specified (residue 26); also: DY-631 dye attached, site not given here
Human serum albumin
  PPB (% change in polarisation value): 33%
[1]
  Kd: 0.5 nM

B5: Compound 4 ([Peptide 1]-DY-650 conjugate) (peptide)
peptide: Ac-AGSCYCSGPPRFECWCYETEGTGGGK-NH2
modifications: disulfide 6-14, 4-16; not fully specified (residue 26); also: DY-650 dye attached, site not given here
Human serum albumin
  PPB (% change in polarisation value): 55%
[1]
  Kd: 3.2 nM

B6: Compound 6 ([Peptide 1]-DY-652 conjugate) (peptide)
peptide: Ac-AGSCYCSGPPRFECWCYETEGTGGGK-NH2
modifications: disulfide 6-14, 4-16; not fully specified (residue 26); also: DY-652 dye attached, site not given here
Human serum albumin
  PPB (% change in polarisation value): 46%
[1]
  Kd: 0.9 nM
